± gives the uncertainty stated by the source.
Experiment: self-splicing fitness, log relative to wild type (ln ratio); higher = more splicing; Tetrahymena group I intron in knt gene, E. coli kanamycin selection, DiMSum; sequences stand for … in CUCUCU…GGAGGGAAAAGUUAUCAGGCAUGCACCUGGUAGCUAGUCUUUAAACCAAUAGAUUGCAUCGGUUUAAAAGGCAAGACCGUCAAAUUGCGGGAAAGGGGUCAACAGCCGUUCAGUACCAAGUCUCAGGGGAAACUUUGAGAUGGCCUUGCAAAGGGUAUGGUAAUAAGCUGACGGACAUGGUCCUAACCACGCAGCCAAGUCCUAAGUCAACAGAUCUUCUGUUGAUAUGGAUGCAGUUCACAGACUAAAUGUCGGUCGGGGAAGAUGUAUUCUUCUCAUAAGAUAUAGUCGGACCUCUCCUUAAUGGGAGCUAGCGGAUGAAGUGAUGCAACACUGGAGCCGCUGGGAACUAAUUUGUAUGCGAAAGUAUAUUGAUUAGUUUUGGAGUACUCGUGGUCG
How it was run: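 Pooled colonies went to amplicon sequencing on an Illumina HiSeq 2500 after six replicate transformations. The plates were LB agar with 100 μg/mL carbenicillin, 50 μM IPTG and 0.2% rhamnose, with or without 25 μg/mL kanamycin, incubated overnight at 37°C or 30°C. The E. coli BL21(DE3) library had all eight P1ex-region intron nucleotides randomised, the intron placed in the knt kanamycin-resistance gene on pET-22b(+). DiMSum fitness is the error-weighted combination of replicate fold changes, kanamycin against none, normalised to wild type.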

For UGUCAGCAAUAUUACGAUAU, which “self-splicing fitness (ln)” value (30 °C) is on record?
Its value is -1.6 ± 0.13.

What about the “self-splicing fitness (ln)” value (37 °C) of the same sequence?
Its value is -0.448 ± 0.13.

For UGUCAGCAAUAUUACGAUCU, which “self-splicing fitness (ln)” value (30 °C) is on record?
Its value is -0.397 ± 0.091.

And the “self-splicing fitness (ln)” value (37 °C)?
The value was 0.0205 ± 0.1.

For UGUCAGCAAUAUUACGCCCU, which “self-splicing fitness (ln)” value (30 °C) is on record?
Its value is -0.458 ± 0.13.

And the “self-splicing fitness (ln)” value (37 °C)?
The value was -0.00845 ± 0.19.

What does the source list for UGUCAGCAAUAUUACGCCUA?
self-splicing fitness (ln) (30 °C): -0.234 ± 0.12; self-splicing fitness (ln) (37 °C): 0.77 ± 0.16

For UGUCAGCAAUAUUACGCCUC, which “self-splicing fitness (ln)” value (30 °C) is on record?
Its value is -2.62 ± 0.42.

With UGUCAGCAAUAUUACGCGCC as the sequence, how does the “self-splicing fitness (ln)” value (30 °C) read?
Its value is -0.7 ± 0.18.

What about the “self-splicing fitness (ln)” value (37 °C) of the same sequence?
The value was -0.523 ± 0.23.

Which results are given for UGUCAGCAAUAUUACGCGGG?
self-splicing fitness (ln) (30 °C): -3.8 ± 0.3; self-splicing fitness (ln) (37 °C): -1.73 ± 0.26

For UGUCAGCAAUAUUACGCUUC, which “self-splicing fitness (ln)” value (37 °C) is on record?
The value was -1.76 ± 0.21.

For UGUCAGCAAUAUUACGGAUA, which “self-splicing fitness (ln)” value (30 °C) is on record?
The value was -1.37 ± 0.1.

And the “self-splicing fitness (ln)” value (37 °C)?
Its value is -0.339 ± 0.12.

Which “self-splicing fitness (ln)” value (30 °C) does the source give for UGUCAGCAAUAUUACGGCCC here?
Its value is -1.78 ± 0.41.

What about the “self-splicing fitness (ln)” value (37 °C) of the same sequence?
Its value is -0.199 ± 0.4.

Which results are given for UGUCAGCAAUAUUACGGCGA?
self-splicing fitness (ln) (30 °C): -0.34 ± 0.093; self-splicing fitness (ln) (37 °C): -0.0234 ± 0.1

For UGUCAGCAAUAUUACGGCGC, which “self-splicing fitness (ln)” value (30 °C) is on record?
Its value is -2.76 ± 0.21.

What about the “self-splicing fitness (ln)” value (37 °C) of the same sequence?
Its value is -1.65 ± 0.19.

Which “self-splicing fitness (ln)” value (30 °C) does the source give for UGUCAGCAAUAUUACGGUGA here?
The value was -0.413 ± 0.094.

And the “self-splicing fitness (ln)” value (37 °C)?
The value was -0.355 ± 0.12.

With UGUCAGCAAUAUUACGUACA as the sequence, how does the “self-splicing fitness (ln)” value (30 °C) read?
Its value is -0.576 ± 0.11.

And the “self-splicing fitness (ln)” value (37 °C)?
Its value is -0.0735 ± 0.13.

What does the source list for UGUCAGCAAUAUUACGUAUA?
self-splicing fitness (ln) (30 °C): -0.245 ± 0.067; self-splicing fitness (ln) (37 °C): 0.374 ± 0.087

For UGUCAGCAAUAUUACGUCAA, which “self-splicing fitness (ln)” value (30 °C) is on record?
The value was -0.787 ± 0.077.

And the “self-splicing fitness (ln)” value (37 °C)?
Its value is -0.0175 ± 0.076.

Which results are given for UGUCAGCAAUAUUACGUGAU?
self-splicing fitness (ln) (30 °C): -2.85 ± 0.13; self-splicing fitness (ln) (37 °C): -1.81 ± 0.14

What does the source list for UGUCAGCAAUAUUACGUGUU?
self-splicing fitness (ln) (30 °C): -3.51 ± 0.15; self-splicing fitness (ln) (37 °C): -1.23 ± 0.11

For UGUGAGCAAUAUUACGACAG, which “self-splicing fitness (ln)” value (30 °C) is on record?
Its value is -1.7 ± 0.1.

What about the “self-splicing fitness (ln)” value (37 °C) of the same sequence?
Its value is -1.59 ± 0.12.

For UGUGAGCAAUAUUACGACAU, which “self-splicing fitness (ln)” value (30 °C) is on record?
The value was -3.682 ± 0.033.

What about the “self-splicing fitness (ln)” value (37 °C) of the same sequence?
Its value is -2.45 ± 0.042.

Which “self-splicing fitness (ln)” value (30 °C) does the source give for UGUGAGCAAUAUUACGACGA here?
The value was -0.898 ± 0.14.

What about the “self-splicing fitness (ln)” value (37 °C) of the same sequence?
Its value is 0.278 ± 0.14.

For UGUGAGCAAUAUUACGAGAG, which “self-splicing fitness (ln)” value (30 °C) is on record?
Its value is -3.57 ± 0.23.

And the “self-splicing fitness (ln)” value (37 °C)?
The value was -2.44 ± 0.22.

With UGUGAGCAAUAUUACGAUUG as the sequence, how does the “self-splicing fitness (ln)” value (30 °C) read?
Its value is -2.19 ± 0.26.

What about the “self-splicing fitness (ln)” value (37 °C) of the same sequence?
Its value is -0.226 ± 0.26.

For UGUGAGCAAUAUUACGCAAU, which “self-splicing fitness (ln)” value (30 °C) is on record?
The value was -4.42 ± 0.42.

What about the “self-splicing fitness (ln)” value (37 °C) of the same sequence?
The value was -2.73 ± 0.31.

Source: the supplement of paper PMC7877785
